Key:
[1] = target: prefusion-stabilized PRD-0038 S2 subunit trimer (PRD-0038 sarbecovirus); test: negative-stain EM
[2] = target: prefusion-stabilized SARS-CoV-1 S2 subunit trimer (SARS-CoV-1); test: negative-stain EM

Row | Substance | stoichiometry N [1] | stoichiometry N [2]
1 | prefusion-stabilized PRD-0038 S2 subunit trimer (domain or fragment) | 3 | 
2 | prefusion-stabilized SARS-CoV-1 S2 subunit trimer (domain or fragment) |  | 3

— publication PMC11214633
